# In paper PMC4866770 (PLoS ONE, 2016):
# B1: FLAG-Fe65 (natural protein, human, UniProt O00213-2 1-708, looked up)
# chain: MSVPSSLSQSAINANSHGGPALSLPLPLHAAHNQLLNAKLQATAVGPKDLRSAMGEGGGPEPGPANAKWLKEGQNQLRRAATAHRDQNRNVTLTLAEEASQEPEMAPLGPKGLIHLYSELELSAHNAANRGLRGPGLIISTQEQGPDEGEEKAAGEAEEEEEDDDDEEEEEDLSSPPGLPEPLESVEAPPRPQALTDGPREHSKSASLLFGMRNSAASDEDSSWATLSQGSPSYGSPEDTDSFWNPNAFETDSDLPAGWMRVQDTSGTYYWHIPTGTTQWEPPGRASPSQGSSPQEESQLTWTGFAHGEGFEDGEFWKDEPSDEAPMELGLKEPEEGTLTFPAQSLSPEPLPQEEEKLPPRNTNPGIKCFAVRSLGWVEMTEEELAPGRSSVAVNNCIRQLSYHKNNLHDPMSGGWGEGKDLLLQLEDETLKLVEPQSQALLHAQPIISIRVWGVGRDSGRDFAYVARDKLTQMLKCHVFRCEAPAKNIATSLHEICSKIMAERRNARCLVNGLSLDHSKLVDVPFQVEFPAPKNELVQKFQVYYLGNVPVAKPVGVDVINGALESVLSSSSREQWTPSHVSVAPATLTILHQQTEAVLGECRVRFLSFLAVGRDVHTFAFIMAAGPASFCCHMFWCEPNAASLSEAVQAACMLRYQKCLDARSQASTSCLPAPPAESVARRVGWTVRRGVQSLWGSLKPKRLGAHTP
# Molecular target: amyloid precursor protein (APP) (human (endogenous in HEK293), UniProt P05067 18-770)
# Sequence (P05067 18-770): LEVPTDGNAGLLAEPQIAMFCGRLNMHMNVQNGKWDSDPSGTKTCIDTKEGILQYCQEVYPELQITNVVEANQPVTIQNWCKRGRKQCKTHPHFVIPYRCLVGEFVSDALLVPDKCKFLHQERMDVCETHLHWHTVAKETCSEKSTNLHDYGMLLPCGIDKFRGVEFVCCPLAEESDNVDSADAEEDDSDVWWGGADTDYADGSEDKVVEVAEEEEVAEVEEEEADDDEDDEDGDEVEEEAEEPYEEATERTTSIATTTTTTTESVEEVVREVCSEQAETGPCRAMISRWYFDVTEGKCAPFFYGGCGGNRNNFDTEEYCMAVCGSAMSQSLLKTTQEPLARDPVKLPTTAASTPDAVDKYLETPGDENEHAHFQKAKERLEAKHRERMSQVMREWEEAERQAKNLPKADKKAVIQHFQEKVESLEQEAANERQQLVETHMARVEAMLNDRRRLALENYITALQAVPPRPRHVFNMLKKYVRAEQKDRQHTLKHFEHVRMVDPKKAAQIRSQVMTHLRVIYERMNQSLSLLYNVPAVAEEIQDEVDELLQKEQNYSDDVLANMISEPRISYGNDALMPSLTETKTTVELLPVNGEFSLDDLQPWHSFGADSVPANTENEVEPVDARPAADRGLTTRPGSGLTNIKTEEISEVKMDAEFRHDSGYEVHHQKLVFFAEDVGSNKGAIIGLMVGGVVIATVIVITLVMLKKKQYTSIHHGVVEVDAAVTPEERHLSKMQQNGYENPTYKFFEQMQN
# Experiment: cell-based or functional assay
binder,measurement,value
B1,GAL4-dependent firefly luciferase reporter in HEK293 with pMST-APP (full-length APP fused to the GAL4 DNA binding domain): increase of APP transcriptional activity,~14 fold
